Among the data in article PMC12153800 (2025) are Kd values, retold here.

Some targets named below: HiBiT-FZD7-mCherry (mouse, UniProt Q61090 33-572); HiBiT-FZD2-mCherry (mouse, UniProt Q9JIP6 29-570); HiBiT-FZD1-mCherry (mouse, UniProt O70421 69-642).
The target in assay [1] is T1, HiBiT-FZD5-mCherry (U-2 OS cells) (mouse, UniProt Q9EQD0 27-585).
T1 chain: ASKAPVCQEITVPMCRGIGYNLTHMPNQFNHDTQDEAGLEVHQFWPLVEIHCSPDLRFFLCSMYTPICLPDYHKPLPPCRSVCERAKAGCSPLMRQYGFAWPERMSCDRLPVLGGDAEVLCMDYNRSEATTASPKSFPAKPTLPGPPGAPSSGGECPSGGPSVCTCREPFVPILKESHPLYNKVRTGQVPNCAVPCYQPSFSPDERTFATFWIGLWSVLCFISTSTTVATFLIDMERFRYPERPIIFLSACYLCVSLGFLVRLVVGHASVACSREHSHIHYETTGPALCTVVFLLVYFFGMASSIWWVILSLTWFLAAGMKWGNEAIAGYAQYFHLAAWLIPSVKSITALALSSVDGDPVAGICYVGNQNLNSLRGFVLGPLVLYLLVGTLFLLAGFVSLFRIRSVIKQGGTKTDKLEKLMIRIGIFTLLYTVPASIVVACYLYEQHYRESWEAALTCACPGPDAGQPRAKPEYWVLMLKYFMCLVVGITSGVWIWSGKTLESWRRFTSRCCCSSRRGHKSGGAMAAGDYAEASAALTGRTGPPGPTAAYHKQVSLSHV

The target of a further assay is T2, HiBiT-FZD4-mCherry (mouse, UniProt Q61088 37-537).
T2 chain: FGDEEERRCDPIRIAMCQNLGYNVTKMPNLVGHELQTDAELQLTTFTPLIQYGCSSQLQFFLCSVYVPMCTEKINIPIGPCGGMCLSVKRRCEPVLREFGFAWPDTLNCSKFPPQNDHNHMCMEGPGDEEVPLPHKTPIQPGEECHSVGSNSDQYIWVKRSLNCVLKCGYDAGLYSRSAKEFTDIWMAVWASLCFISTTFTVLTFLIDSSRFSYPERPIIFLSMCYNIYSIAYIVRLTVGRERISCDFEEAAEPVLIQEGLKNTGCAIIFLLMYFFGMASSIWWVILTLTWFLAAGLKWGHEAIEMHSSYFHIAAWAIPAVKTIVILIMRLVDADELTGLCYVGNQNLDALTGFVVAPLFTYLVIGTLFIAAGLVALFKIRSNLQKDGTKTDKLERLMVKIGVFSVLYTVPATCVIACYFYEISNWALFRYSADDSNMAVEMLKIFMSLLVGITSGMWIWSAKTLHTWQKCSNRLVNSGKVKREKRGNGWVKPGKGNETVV

Another assay deals with T3, HiBiT-FZD8-mCherry (mouse, UniProt Q61091 28-685).
T3 chain: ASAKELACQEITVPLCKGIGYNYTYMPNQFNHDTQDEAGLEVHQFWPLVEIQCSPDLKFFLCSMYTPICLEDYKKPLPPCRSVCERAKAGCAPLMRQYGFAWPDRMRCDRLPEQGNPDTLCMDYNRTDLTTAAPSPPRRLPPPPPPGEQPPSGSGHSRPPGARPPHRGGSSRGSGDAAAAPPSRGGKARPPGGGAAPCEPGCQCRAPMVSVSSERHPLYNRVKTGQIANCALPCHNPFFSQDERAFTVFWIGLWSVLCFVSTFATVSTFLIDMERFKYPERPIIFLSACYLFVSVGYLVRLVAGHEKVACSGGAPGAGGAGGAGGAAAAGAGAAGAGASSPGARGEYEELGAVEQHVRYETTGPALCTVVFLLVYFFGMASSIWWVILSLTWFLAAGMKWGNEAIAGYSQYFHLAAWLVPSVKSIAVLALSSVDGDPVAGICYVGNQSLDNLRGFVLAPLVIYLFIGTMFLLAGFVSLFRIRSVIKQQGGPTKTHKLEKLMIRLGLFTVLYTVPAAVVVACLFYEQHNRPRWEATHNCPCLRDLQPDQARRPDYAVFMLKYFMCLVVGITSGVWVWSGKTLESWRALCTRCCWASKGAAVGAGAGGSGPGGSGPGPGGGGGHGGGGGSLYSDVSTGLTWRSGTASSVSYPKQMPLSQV

HiBiT-FZD1-mCherry, sequence (O70421 69-642): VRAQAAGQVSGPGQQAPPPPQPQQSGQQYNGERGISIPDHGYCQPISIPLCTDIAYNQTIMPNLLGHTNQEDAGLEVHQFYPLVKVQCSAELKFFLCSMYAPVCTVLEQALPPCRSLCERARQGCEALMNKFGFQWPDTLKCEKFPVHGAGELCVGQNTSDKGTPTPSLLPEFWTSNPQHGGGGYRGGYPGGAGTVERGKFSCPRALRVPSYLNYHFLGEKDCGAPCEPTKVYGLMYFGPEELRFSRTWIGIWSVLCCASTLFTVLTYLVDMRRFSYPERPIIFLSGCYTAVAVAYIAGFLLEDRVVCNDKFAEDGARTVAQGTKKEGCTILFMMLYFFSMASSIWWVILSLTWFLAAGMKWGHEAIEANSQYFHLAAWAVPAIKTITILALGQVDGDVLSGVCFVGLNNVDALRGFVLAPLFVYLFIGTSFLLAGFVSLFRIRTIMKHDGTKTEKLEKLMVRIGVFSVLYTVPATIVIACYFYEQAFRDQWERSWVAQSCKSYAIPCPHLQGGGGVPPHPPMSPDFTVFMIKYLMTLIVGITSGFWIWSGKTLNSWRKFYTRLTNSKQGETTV
HiBiT-FZD2-mCherry, sequence (Q9JIP6 29-570): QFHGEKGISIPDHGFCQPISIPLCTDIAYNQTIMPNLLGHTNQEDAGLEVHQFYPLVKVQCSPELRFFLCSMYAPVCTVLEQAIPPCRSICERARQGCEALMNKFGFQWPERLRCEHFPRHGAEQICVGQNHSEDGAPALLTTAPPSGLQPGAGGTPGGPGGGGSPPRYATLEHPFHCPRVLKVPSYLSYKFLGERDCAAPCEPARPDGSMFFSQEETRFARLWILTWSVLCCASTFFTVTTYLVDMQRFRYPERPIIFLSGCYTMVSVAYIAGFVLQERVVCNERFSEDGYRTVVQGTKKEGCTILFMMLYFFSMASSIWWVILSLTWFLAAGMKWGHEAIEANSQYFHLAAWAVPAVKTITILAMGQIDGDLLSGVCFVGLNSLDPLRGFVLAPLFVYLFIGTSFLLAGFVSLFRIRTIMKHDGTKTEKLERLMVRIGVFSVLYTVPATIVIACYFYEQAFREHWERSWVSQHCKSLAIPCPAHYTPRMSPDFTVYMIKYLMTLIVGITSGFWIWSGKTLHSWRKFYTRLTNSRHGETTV

B1: eGFP-Wnt16 (ligand)
chain: NWMWLGIASFGVPEKLGCANLPLNSRQKELCKRKPYLLPSIREGARLGIQECGSQFRHERWNCMITAAATTAPMGASPLFGYELSSGTKETAFIYAVMAAGLVHSVTRSCSAGNMTECSCDTTLQNGGSASEGWHWGGCSDDVQYGMWFSRKFLDFPIGNTTGKENKVLLAMNLHNNEAGRQAVAKLMSVDCRCHGVSGSCAVKTCWKTMSSFEKIGHLLKDKYENSIQISDKTKRKMRRREKDQRKIPIHKDDLLYVNKSPNYCVEDKKLGIPGTQGRECNRTSEGADGCNLLCCGRGYNTHVVRHVERCECKFIWCCYVRCRRCESMTDVHTCK
Usually Kd stands for a measure of binding affinity in units of concentration. Low readings indicate a tighter complex, high ones a looser complex. In the case of B1, the Kd was determined as 10.3 nM with HiBiT-FZD7-mCherry; 14.2 nM in assay [1]; 10.6 nM with HiBiT-FZD2-mCherry; 30.7 nM with HiBiT-FZD1-mCherry; 21.8 nM with HiBiT-FZD4-mCherry; 6.62 nM with HiBiT-FZD8-mCherry.

B2: eGFP-Wnt5a (ligand)
chain: IIGAQPLCSQLAGLSQGQKKLCHLYQDHMQYIGEGAKTGIKECQYQFRHRRWNCSTVDNTSVFGRVMQIGSRETAFTYAVSAAGVVNAMSRACREGELSTCGCSRAARPKDLPRDWLWGGCGDNIDYGYRFAKEFVDARERERIHAKGSYESARILMNLHNNEAGRRTVYNLADVACKCHGVSGSCSLKTCWLQLADFRKVGDALKEKYDSAAAMRLNSRGKLVQVNSRFNSPTTQDLVYIDPSPDYCVRNESTGSLGTQGRLCNKTSEGMDGCELMCCGRGYDQFKTVQTERCHCKFHWCCYVKCKKCTEIVDQFVCK
For the molecule B2, the Kd with HiBiT-FZD7-mCherry came to 1.25 nM; in assay [1], 16.2 nM; with HiBiT-FZD2-mCherry, 3.85 nM; in the assay with HiBiT-FZD1-mCherry, 14.4 nM; with HiBiT-FZD4-mCherry, 3.56 nM; with HiBiT-FZD8-mCherry it was 7.52 nM.
